Reference: US8236540B2, “Isolated luciferases and the use thereof” (Bayer Intellectual Property GmbH, priority 2000, dated 2012)

B1: Lu164: coelenterazine-dependent secreted luciferase from Metridia longa, amino acid sequence SEQ ID NO: 4 (protein, listed as Metridia longa)
chain: MDIKVVFTLVFSALVQAKSTEFDPNIDIVGLEGKFGITNLETDLFTIWETMEVMIKADIADTDRASNFVATETDANRGKMPGKKLPLAVIMEMEANAFKAGCTRGCLICLSKIKCTAKMKVYIPGRCHDYGGDKKTGQAGIVGAIVDIPEISGFKEMAPMEQFIAQVDRCASCTTGCLKGLANVKCSELLKKWLPDRCASFADKIQKEVHNIKGMAGDR
B2: LuAL: coelenterazine-dependent secreted luciferase from Metridia longa, amino acid sequence SEQ ID NO: 2 (protein, listed as Metridia longa)
chain: MDMRVIFALVFSSLVQAKSTEFDPNINIVGLEGKFGITNLETDLFTIWETMDVIKSDITDTDRVSNFVATETDANRGKMPGKKLPLAVIMEMEANAFKAGCTRGCLICLSKIKCTAKMKVYIPGRCHDYGGDKKTGQAGIVGAIVDIPEISGFKEMAPMEQFIAQVDLCATCTTGCLKGLANVKCSELLKKWLPGRCASFADKIQKEVHNIKGMAGDR
B3: Lu22: coelenterazine-dependent secreted luciferase from Metridia longa, amino acid sequence SEQ ID NO: 6 (protein, listed as Metridia longa)
chain: MGVKLIFAVVCVAVAQAATIQENFEDIDLVAIGGSFASDVDANRGGHGGHPGKKMPKEVLMEMEANAKRAGCHRGCLVCLSHIKCTAQMQKFIPGRCHSYAGDKDSAQGGIAGGAIVDIPEIAGFKEMKPMEQFIAQVDLCEDCTTGCLKGLANVHCSDLLKKWLPSRCKTFASKIQSQVDTIKGLAGDR

Experiments:
Lu22 = experiment: Coelenterazine derivatives as substrates of Lu22; assay type: biochemical, Metridia longa; settings: coelenterazine derivatives 10^-4 M
LuAL = experiment: Coelenterazine derivatives as substrates of LuAL; assay type: biochemical, Metridia longa; settings: coelenterazine derivatives 10^-4 M
Lu164 = experiment: Coelenterazine derivatives as substrates of Lu164 (luminescence with CHO-pcDNA3-Lu164 supernatant); assay type: biochemical, Metridia longa; settings: 10 μl derivative (10^-4 M) + 10 μl supernatant of CHO-pcDNA3-Lu164, 8.7 kV for 30 seconds
Method: In order to identify substrates for Lu164, 10 μl solutions of different coelenterazine derivatives (10^−4 M) were in each case incubated with 10 μl of supernatant from CHO-pcDNA3-Lu164 cell lines and the luminescence was measured. The coelenterazines were obtained from Molecular Probes (USA).

[1] = Luciferase activity (chemiluminescence) after constitutive eukaryotic expression in transiently transfected CHO cells; assay type: cell-based; settings: CHO cells transiently transfected with pcDNA3 vectors, 5 μl, coelenterazine 10^-4 M, 9.5 kV for 30 seconds, room temperature
Method: Constitutive eukaryotic expression was affected in CHO cells by transfecting the cells with the expression plasmids pcDNA3-Lu164, pcDNA3-LuAL and pcDNA3-Lu22 in transient experiments. For this, 10 000 cells in DMEM-F12 medium were plated, per well, in 96-well microtiter plates and incubated overnight at 37° C. The transfection was effected using the Fugene 6 kit (Roche) in accordance with the manufacturer's instructions. The transfected cells were incubated overnight at 37° C. in DMEM-F12 medium. The chemiluminescence in the medium (5 ul) and the cell lysate (5 μl) was measured for 30 seconds at 9.5 kV in a luminometer, at room temperature, after adding coelenterazine (10^−4 M in methanol).
Values of 680 000, 670 000 and 510 000 RLU (relative light units) were measured in the case of Lu1 64, LuAL and Lu22, respectively. The expression was effected in CHO cells using the vectors pcDNA3-Lu164, pcDNA3-LuAL and pcDNA3-Lu22.

[2] = Luciferase activity (chemiluminescence) of bacterial lysate after adding coelenterazine; assay type: biochemical; settings: 5 μl E. coli BL21(DE3) lysate (5 mg/ml), pTriplEx2 vectors, coelenterazine 10^-4 M, 9.5 kV for 30 seconds
Method: The bacterial expression took place in the E. coli strain BL21(DE3) as a result of transforming the bacteria with the expression plasmids pTriplEX2-Lu164, pTriplEX2-LuAL and pTriplEX2-Lu22. The transformed bacteria were incubated at 37° C. for 3 hours in LB medium and expression was induced for 4 hours by adding IPTG to a final concentration of 1 mM. The induced bacteria were harvested by centrifugation, resuspended in PBS and disrupted by ultrasonication. Coelenterazine (10^−4 M in methanol) or luciferin (Firefly Luciferin) was added to 5 μl of the lysate (5 mg/ml) and the chemiluminescence was measured.
The measurement, in RLU (relative light units), took place at 9.5 kV for 30 seconds. Values of 230 000, 320 000 and 260 000 RLU were measured in the case of Lu1 64, LuAL and Lu22, respectively. The enzymes were expressed in E. coli BL21(DE3) using the vectors pTriplEx2-Lu164, pTriplEx2-LuAL and pTriplEx2-Lu22.

Row | Molecule | substrate suitability for Lu22 (luminescence) (Lu22) | substrate suitability for LuAL (luminescence) (LuAL) | substrate suitability for Lu164 (luminescence) (Lu164) | chemiluminescence, RLU (relative light units) [1] | chemiluminescence, RLU (relative light units) [2]
1 | Oc1ccc(Cc2nc3c(Cc4ccccc4)nc(-c4ccc(O)cc4)cn3c2O)cc1 [coelenterazine] | optimal substrate | optimal substrate | optimal substrate |  | 
2 | B1 |  |  |  | 680 000 RLU | 230 000 RLU
3 | B2 |  |  |  | 670 000 RLU | 320 000 RLU
4 | B3 |  |  |  | 510 000 RLU | 260 000 RLU
